Test results from patent publication US20080138837A1, “Methods and kits for detecting and measuring ADAMTS13/FXI complexes” (priority 2004, published 2008).
Numbered stars: 1 amine (or outer) side, 2 acyl side, 3 side chain; on linkers, the order of the positions; unused ones are H or OH. * marks the point of attachment. AMC = Cc1cc(=O)oc2cc(N*)ccc12; Suc = O=C(CCC(=O)[*:2])[*:1]

Key:
ADAMTS13/FXI complexes = biological target: T1, ADAMTS13/FXI complexes (Homo sapiens, UniProt P03951+Q76LX8); assay: Formation of ADAMTS13/FXI complexes in FXI-deficient plasma after addition of FXI (ELISA); type: binding; conditions: FXI-deficient plasma diluted 1:8 in ECD, 30 minutes, FIG. 25
T1 construct: addition of FXI (Enzyme Research Lab, Canada) to FXI-deficient plasma diluted 1:8 in ECD; purchased Enzyme Research Lab, Canada; host or cells: FXI purchased; ADAMTS13 endogenous in plasma from patients with congenital FXI deficiency
Experimental: An assay was developed for measuring the presence of ADAMTS13/FXI complexes by ELISA analysis. A standard curve was generated using PNP (Saturn Biomedical), diluted 1:4 in ECD buffer (PBS/3% BSA/gentamicin), and then serially diluted 1:2 in ECD buffer. Assays were performed in duplicate, using 100 μl of each standard dilution in Immulon 4 HBX 96-well microtiter plates (ThermoLabsystems, Franklin, Mass.) that were coated with goat anti-human ADAMTS13 antibody raised against a synthetic peptide sequence in the CUB1 domain (SC21510; Santa Cruz Biotechnology, Santa Cruz, Calif.) at a concentration of 1 μg/ml in 3-(N-morpholino)propanesulfonate (MOPS) coating buffer (0.1 M MOPS, 0.15 M NaCl, 0.05 M CaCl2, 0.066 M Trehalose, 0.02% NaN3, pH 7.4). Microtiter plates were blocked with SuperBlock (Pierce Chemical Co., Indianapolis, Ind.).
Standards and diluted samples were incubated in coated microwells for 2 hours at room temperature, with mixing. […] The optical density of the mixture was then read in a spectrophotometer at 450 nm.
Formation of ADAMTS13/FXI complexes was measured after addition of FXI (Enzyme Research Lab, Canada) to FXI-deficient plasma diluted 1:8 in ECD. […] The plasma containing newly formed ADAMTS13/FXI complexes were then added to anti-ADAMTS13 antibody-coated microwells and quantified, as described in Example 16.

[1] = biological target: T2, recombinant ADAMTS13 (recADAMTS13) (Homo sapiens, UniProt Q76LX8); assay: Recombinant ADAMTS13 activity in tissue culture supernatants using fluorescent substrate; type: biochemical; conditions: 0.8 mM substrate, 50 mM Tris-HCl pH 8.0, FIG. 5
T2 construct: made in house; host or cells: HEK 293 cells; crude culture supernatant supplied by Dr. David Ginsburg, University of Michigan
T2 sequence (Q76LX8 75-1427): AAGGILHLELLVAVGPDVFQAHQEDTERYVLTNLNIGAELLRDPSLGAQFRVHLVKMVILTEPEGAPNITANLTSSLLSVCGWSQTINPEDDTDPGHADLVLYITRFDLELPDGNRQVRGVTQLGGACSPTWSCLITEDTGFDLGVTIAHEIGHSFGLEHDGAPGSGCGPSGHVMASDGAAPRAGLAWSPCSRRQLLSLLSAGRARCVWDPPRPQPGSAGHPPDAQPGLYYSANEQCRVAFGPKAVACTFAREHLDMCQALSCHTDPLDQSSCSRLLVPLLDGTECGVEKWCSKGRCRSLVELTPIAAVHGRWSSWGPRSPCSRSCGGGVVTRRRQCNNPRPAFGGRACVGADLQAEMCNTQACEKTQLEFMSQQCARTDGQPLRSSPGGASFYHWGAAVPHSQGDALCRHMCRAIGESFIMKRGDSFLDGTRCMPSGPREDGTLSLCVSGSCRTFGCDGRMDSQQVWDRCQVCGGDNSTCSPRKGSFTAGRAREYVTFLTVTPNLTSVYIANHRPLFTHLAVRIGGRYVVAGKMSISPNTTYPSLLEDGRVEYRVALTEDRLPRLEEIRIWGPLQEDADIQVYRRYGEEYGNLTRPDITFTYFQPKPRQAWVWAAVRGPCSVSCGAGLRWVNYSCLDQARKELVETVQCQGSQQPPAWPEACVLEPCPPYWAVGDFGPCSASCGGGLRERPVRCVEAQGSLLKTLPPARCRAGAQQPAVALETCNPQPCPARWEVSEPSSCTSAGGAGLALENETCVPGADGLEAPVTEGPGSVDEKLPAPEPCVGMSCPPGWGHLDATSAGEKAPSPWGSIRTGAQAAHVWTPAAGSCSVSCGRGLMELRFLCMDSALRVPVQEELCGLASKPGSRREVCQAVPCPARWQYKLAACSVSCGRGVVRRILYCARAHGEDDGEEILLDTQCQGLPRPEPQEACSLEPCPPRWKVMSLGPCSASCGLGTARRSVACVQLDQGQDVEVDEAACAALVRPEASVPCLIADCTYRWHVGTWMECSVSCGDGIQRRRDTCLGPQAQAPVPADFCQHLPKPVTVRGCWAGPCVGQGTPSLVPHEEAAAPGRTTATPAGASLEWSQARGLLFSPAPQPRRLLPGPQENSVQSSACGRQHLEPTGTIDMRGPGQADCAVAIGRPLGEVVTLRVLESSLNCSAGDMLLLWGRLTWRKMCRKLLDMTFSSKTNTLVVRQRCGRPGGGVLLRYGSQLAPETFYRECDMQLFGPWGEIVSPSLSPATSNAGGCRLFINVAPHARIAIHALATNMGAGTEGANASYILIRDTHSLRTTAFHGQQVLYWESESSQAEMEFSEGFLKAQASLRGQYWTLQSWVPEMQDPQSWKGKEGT
Source text: HEK 293 cells were transfected with a vector encoding ADAMTS13. Cell culture supernatant from the transfected HEK 293 cells, containing recombinant ADAMTS13, was generously provided by Dr. David Ginsburg (University of Michigan, Mich.). Mock transfected cell supernatant with no recombinant ADAMTS13 was also provided as a control.
Fluorescence signals were compared between tissue culture supernatant from HEK 293 cells transfected with a viral vector coding for recombinant ADAMTS13 (“recADAMTS13”) and supernatant from mock transfected HEK 293 cells, as a control. (Culture supernatants were supplied by Dr. David Ginsburg, University of Michigan.) Varying amounts of the two culture supernatants were added to 0.8 mM Suc-Leu-Leu-Val-Tyr-AMC (SEQ ID NO: 2) fluorescent substrate in 50 mM Tris-HCl pH 8.0 in a total volume of 100 μl.

ADAMTS13 = ADAMTS13 activity in PRP using peptidyl substrates; type: biochemical, human; conditions: 0.8 mM substrate, 37° C., FIG. 3
Experimental: Blood was collected by venopuncture into collection tubes containing 0.12 M sodium citrate, an anti-coagulant. The citrated blood was centrifuged at 700 rpm for 10 minutes. The supernatant was removed and saved as the platelet rich plasma (PRP) fraction. The PRP was centrifuged at 10,000 rpm for 20 minutes. The supernatant was removed and saved as the platelet poor plasma (PPP) fraction. The pellet contained the platelets, which were washed by resuspending in 10 mM Tris-HCl pH 8.0 buffer and centrifuging at 10,000 rpm for 10 minutes. The isolated platelets were resuspended in buffer and used in experiments.
As discussed above, Furlan et al. reported that some peptidyl-pNA moieties, such as XLY-pNA and XVY-pNA, were not substrates for ADAMTS13. We prepared LVY-pNA and tested it for its ability to be cleaved by ADAMTS13. The results shown in FIG. 2 confirm the findings of Furlan et al., i.e., LVY-pNA was not cleaved by ADAMTS13.
In order to determine the effect of modifying the length of the peptide sequence conjugated to the AMC fluorochrome, normal PRP (20 μl) was incubated at 37° C. with a final concentration of 0.8 mM Suc-LLVY-AMC or LVY-AMC in 10 mM Tris-HCl pH 8.0 buffer in total volume of 200 μl. Fluorescence was measured using a microtiter fluorophotometric plate reader (Ex 360 nm/Em 460 nm).

human FXI = human FXI (Homo sapiens, UniProt P03951); assay: Binding of recombinant ADAMTS13 to FXI-coated plates (ELISA); conditions: FXI coated at 1 μg/ml, 1 hour, detection anti-ADAMTS13 TSP5-7 rabbit polyclonal, OD 450 nm, FIG. 22
Experimental: Binding of recADAMTS13 to immobilized FXI was measured using microplates coated with human FXI at a concentration of 1 μg/ml. RecADAMTS13 in solution was added to the FXI-coated microwells and incubated for 1 hour. ADAMTS13/FXI complexes were measured using ELISA. Specifically, after incubation with recADAMTS13, plates were washed with PBS +1% Tween, followed by incubation for 1 hour with anti-ADAMTS13 TSP5-7 rabbit polyclonal antibodies (1 μg/ml). Plates were washed again in PBS+1% Tween, followed by addition of a murine anti-rabbit IgG antibody conjugated to HRP. The detection antibody was incubated for an hour at room temperature. After washing the excess detection antibody from the plates, the TMB substrate was added, incubated for 10 minutes, after which 0.5 M sulfuric acid was added to terminate the reaction. The optical density of the mixture was measured at 450 nm on a spectrophotometer (FIG. 22).

FXI: Factor XI zymogen (Enzyme Research Lab, Canada)
ADAMTS13/FXI complexes formed upon addition of FXI (ADAMTS13/FXI complexes): increasing amounts of ADAMTS13/FXI complexes were formed

Suc-Leu-Leu-Val-Tyr-AMC (Suc-LLVY-{AMC}; SMILES Cc1cc(=O)oc2cc(NC(=O)[C@H](Cc3ccc(O)cc3)NC(=O)[C@@H](NC(=O)[C@H](CC(C)C)NC(=O)[C@H](CC(C)C)NC(=O)CCC(=O)O)C(C)C)ccc12) [Suc-LLVY-AMC, fluorogenic peptidyl substrate from Bachem Bioscience Inc]
cleavage of fluorescent substrate by recADAMTS13 in supernatant of transfected HEK 293 cells versus mock [1]: cleavage of the substrate by recADAMTS13
cleavage of peptidyl-AMC substrate by ADAMTS13 in PRP (ADAMTS13; normal PRP 20 μl, 10 mM Tris-HCl pH 8.0, Ex 360 nm/Em 460 nm): cleaved
fluorescence signal over time as compared to the LVY-AMC substrate (ADAMTS13; normal PRP): higher signal over time

recADAMTS13: recombinant ADAMTS13 in culture supernatant of transfected HEK 293 cells
complex formation with immobilized FXI (human FXI): stable complex
